{"source": "the nanobody polyreactivity screen of Harvey et al. (2022)"}
{"experiment": "yeast display, Sf9 membrane polyspecificity reagent, FACS + sequencing; frameworks hold sequencing errors", "method_in_brief": "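Sorting gates, low and high (top ~1%), were placed on anti-HA fluorescence to track expression and on streptavidin fluorescence to track reagent binding. A clone's polyreactivity label is taken from the gate it came out of. The reagent was 10% biotinylated, detergent-solubilized Sf9 membrane, applied for 1 hour at 4 °C to galactose-induced yeast display cells.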"}
{"sequence": "QVQLVESGGGLVQAGGSLRLSCAASGRIFGGNAMGWYRQAPAKERELVAAISKRGGSTYYADSVKGRFTISRDNAKNTVYLQMNSLKPEDTAVDYCAATAYADQGLDYGYWGQGTQVTVSS", "polyreactivity (PSR sort gate)": "high polyreactivity"}
{"sequence": "QVQLVESGGGLVQAGGSLRLSCAASGRIFGGNAMGWYRQAPGKERQLVAAISKRGGSTYYADSVKGRFTISRDNAKNTVYLQMNSLKPEDTAVYYCAATPYSDQGLDYGYWGQGTQVTVSS", "polyreactivity (PSR sort gate)": "high polyreactivity"}
{"sequence": "QVQLVESGGGLVQAGGSLRLSCAASGRIFGGNAMVWYRQAPGKERELVAAITTRGGSTYADSVKGRFTISRDNAKNTVYLQMNSLKPEDSAVYYCNKRYVIRRRGYDYWGQGTQVTVSS", "polyreactivity (PSR sort gate)": "low polyreactivity"}
{"sequence": "QVQLVESGGGLVQAGGSLRLSCAASGRIFGGYAMGWYRQAAGKERELVAAISRRGGSTYYADSVKGRFTISRDNAKNTVYLQMNSLKPEDTAVYYCNAVLSDQARLTRVDYDYWGQGTQVTVSS", "polyreactivity (PSR sort gate)": "high polyreactivity"}
{"sequence": "QVQLVESGGGLVQAGGSLRLSCAASGRIFGGYAMGWYRQAPGKERELVAAIRDSGRTYYADSVKGRFTISRDNEKNTVYLQMNRLKPEDTAVYYCAADAHSSYSPFRWYDYWGQGSQVTVSS", "polyreactivity (PSR sort gate)": "low polyreactivity"}
{"sequence": "QVQLVESGGGLVQAGGSLRLSCAASGRIFGGYAMGWYRQAPGKERELVAVISGRGGSTYYADSVKGRFTISRDNAMNTVYLQMNSLKPEDTAVYYCTVYRRIQRYGPQSYDYWGQGTQVTVSS", "polyreactivity (PSR sort gate)": "high polyreactivity"}
{"sequence": "QVQLVESGGGLVQAGGSLRLSCAASGRIFGGYTMGWYRQAPGKEREFVAAITSSGGSTYYADSVKGRLTISRDNAKNTVYLQMNSLKPEDTAVYYCAVADYYDDYDYWGQGTQVTVSS", "polyreactivity (PSR sort gate)": "low polyreactivity"}
{"sequence": "QVQLVESGGGLVQAGGSLRLSCAASGRIFGGYTMGWYRQAPGKERELVAAIRWSGGRTYYADSVKGRFTISRDNAKNTVYLQMNSLKPEDTAVYYCNRTPRYTIRYGYWGQGTQVTVSS", "polyreactivity (PSR sort gate)": "high polyreactivity"}
{"sequence": "QVQLVESGGGLVQAGGSLRLSCAASGRIFGGYTMGWYRQAPGKERELVAAITGSGGRTYYADSVKGRFTISRDKAKNTVYLQMNSLKPDETAVYYCNTVYRYRYYWGQGTQVTVSS", "polyreactivity (PSR sort gate)": "high polyreactivity"}
{"sequence": "QVQLVESGGGLVQAGGSLRLSCAASGRIFGHYAMGWYRPAPGKERELVAAISTGGSTYYADSVKGRFTISRDNAKNTVYFQMNSLKPEDTAVYFCNKRPVRRKYDYWGQGTHVTVSS", "polyreactivity (PSR sort gate)": "low polyreactivity"}
{"sequence": "QVQLVESGGGLVQAGGSLRLSCAASGRIFGHYAMGWYRQAPGKERELVAAINWRGGSTYYADSVKGRFTISRDNAKNTVYLQMNSLKPEDTAVYYCAAANFRSYLSQTGPRAYYYWGQGTQVTVSS", "polyreactivity (PSR sort gate)": "low polyreactivity"}
{"sequence": "QVQLVESGGGLVQAGGSLRLSCAASGRIFGHYAMGWYRQAPGKERELVAAISQSGTNTYYADSVKGRFTISRDNAKNTVYLQMNSLKPEDTAVYYCAAKPPRRYQLMDYWGQGTKVTVSS", "polyreactivity (PSR sort gate)": "high polyreactivity"}
{"sequence": "QVQLVESGGGLVQAGGSLRLSCAASGRIFGHYVMGWYRQAPGKERELVAGISSGGITYYADSVKGRFTISRDNAKNTVYLQMNSLKPEDTAVYYCAARVYYVRGSDTMDYWGQGTQVTVSS", "polyreactivity (PSR sort gate)": "low polyreactivity"}
{"sequence": "QVQLVESGGGLVQAGGSLRLSCAASGRIFGINAMGCYRQAPGKERELVAAINWSGGSTYYADSVKGRFTISRDNAKNTVYLQMNSLKPEDTEVYYCAAQKYKRVGYWGQVTQVTVSS", "polyreactivity (PSR sort gate)": "high polyreactivity"}
{"sequence": "QVQLVESGGGLVQAGGSLRLSCAASGRIFGINAMGWYRQAPGKERELVAAINWSGGSTYYADSVKGRFTISRDNAKNTVYLQMNSLKPEDTAVYYCAAQKYKRVGYWGQGTQVTVSS", "polyreactivity (PSR sort gate)": "high polyreactivity"}
{"sequence": "QVQLVESGGGLVQAGGSLRLSCAASGRIFGINAMGWYRQAPGKERELVAAITSGVSTNYADSVKGRFTISRDNAKNTVYLQMNSLKPEDTAVYYCATRRNRSYDYWGQGTQVTVSS", "polyreactivity (PSR sort gate)": "low polyreactivity"}
{"sequence": "QVQLVESGGGLVQAGGSLRLSCAASGRIFGIYAMGWHRQAPGKERELVASITDGTITNYADSVKGRFTISRDNAKNTVYLQMNSLKPEDTAVYYCAAGTQAHAYVVRPIEMDYSGQGTQVTVSS", "polyreactivity (PSR sort gate)": "low polyreactivity"}
{"sequence": "QVQLVESGGGLVQAGGSLRLSCAASGRIFGIYAMGWYRQAPGKERELVADIDVSDGSTYYADSVKGRFTISRDNAKNTVYLQMNSLKPEDTAVYYCNAEDSSRWYDWYLHDYWGQGTQVTVSS", "polyreactivity (PSR sort gate)": "high polyreactivity"}
{"sequence": "QVQLVESGGGLVQAGGSLRLSCAASGRIFGIYAMGWYRQAPGKERELVATITDSDDSTYYADSVKGRFTISRDNAKNTVYLQMNSLKPEDTAVYYCAAADGIYARYFFSRFPRFDYWGQGTQVTVSS", "polyreactivity (PSR sort gate)": "low polyreactivity"}
{"sequence": "QVQLVESGGGLVQAGGSLRLSCAASGRIFGKNAMGWYRQAPGKERELVAAISANGGSTSYADSVKGRFTISRDNAKNTVYLQMNSLKPEDTAVYYCNVRRQLRGDYWGHGTQVTVSS", "polyreactivity (PSR sort gate)": "high polyreactivity"}
{"sequence": "QVQLVESGGGLVQAGGSLRLSCAASGRIFGKYAMGWYRQAPGKERELVAAITRRGGSTYYADSVKGRFTISRDNAKNTVYLQMNSLKPEDTAVYYCNAALTGYRVSPTRHRYDYWGQGTQVTVSS", "polyreactivity (PSR sort gate)": "high polyreactivity"}
{"sequence": "QVQLVESGGGLVQAGGSLRLSCAASGRIFGKYVMGWYRQAPGKERELVAAISRSGGSTSYADSVKGRFTISRDNAKNTVYLQMNSLKPEDTEVYYCAAGFLSGWWFAYDYWGQGTQVTVSS", "polyreactivity (PSR sort gate)": "high polyreactivity"}
{"sequence": "QVQLVESGGGLVQAGGSLRLSCAASGRIFGLNAMGWSRQAPGKERELVASITYSGGSTYYADSVKGRFTISRDNAKNTVYLQMNSLKPEDTAVYYCAARIIVDDVGTKYYYWGQGTQVTVSS", "polyreactivity (PSR sort gate)": "high polyreactivity"}
{"sequence": "QVQLVESGGGLVQAGGSLRLSCAASGRIFGLNAMGWYRQAPGKERELVAAIDQGDGITYYADSVKGRFTISRDNAKNTVYLQMNSLKPEDTAVYYCAAEVSYKEIYQYYWIYPAYNYWGQGTQVTVSS", "polyreactivity (PSR sort gate)": "high polyreactivity"}
{"sequence": "QVQLVESGGGLVQAGGSLRLSCAASGRIFGLYALGWYRPAPGKEREFVAAIRWIGGGTYYADSVKGRFTISRDHAKNTVYLQINSLKPEDTAVDSCNVVTWYYVFRPWEYDYWGQGTQVTVSS", "polyreactivity (PSR sort gate)": "low polyreactivity"}
{"sequence": "QVQLVESGGGLVQAGGSLRLSCAASGRIFGLYAMGWYRHAPGKEREFVAANNWDGGSTFYADSVKGRFTISRDNAKNTVYLQMNSLKPEDTAVYSCAADVYSYVSYSTYVSVFTYDYWGQGTQVTVSS", "polyreactivity (PSR sort gate)": "low polyreactivity"}
{"sequence": "QVQLVESGGGLVQAGGSLRLSCAASGRIFGLYAMGWYRQAPGKERELVAGITYSGGTTYYADSVKGRFTISRDNAKNTVYLQMNSLKPEDTAVYYCNKRWYYQYGKYGYWGQGTQVTVSS", "polyreactivity (PSR sort gate)": "high polyreactivity"}
{"sequence": "QVQLVESGGGLVQAGGSLRLSCAASGRIFGLYAMGWYRQAPGKERELVATITRRAGSTYYADSVKGRFTISRDNAKNTVYLQMNSLKPEDTAVYYCAARSWANYDYWGQGTQVTVSS", "polyreactivity (PSR sort gate)": "high polyreactivity"}
{"sequence": "QVQLVESGGGLVQAGGSLRLSCAASGRIFGLYTMGWYRQAPGKEREFVAGITYSAGRTYYADSVKGRFTISRDNAKNTVYLQMNSLKPEDTAVYYCAATRRWYPTKLYGYWGQVTQVTVSS", "polyreactivity (PSR sort gate)": "high polyreactivity"}
{"sequence": "QVQLVESGGGLVQAGGSLRLSCAASGRIFGNNAMAWYRQATGKESELVAGISRTGGSTYYADSVKGRFTISRDNAKNTVYLQMNSLKPEDTAVFYCAALVYSGRYASYGYWGQGTQVTVSS", "polyreactivity (PSR sort gate)": "low polyreactivity"}
{"sequence": "QVQLVESGGGLVQAGGSLRLSCAASGRIFGPYAMGWYRQAPGKERELVAAISQRGGTTYYADSVKGRFTISRDNAKNTVYLQMNSLKPEDTAVYYCAAKTYGWGQGTQVTVSS", "polyreactivity (PSR sort gate)": "high polyreactivity"}
{"sequence": "QVQLVESGGGLVQAGGSLRLSCAASGRIFGPYTMGWYRQAPAKEREFVAAITRRGGSTYYADSVKGRFTISRDNAKNTVYLQMNSLKPEDTAVYYCAAVGLKRSLGYSWGQGTQVTVSS", "polyreactivity (PSR sort gate)": "low polyreactivity"}
{"sequence": "QVQLVESGGGLVQAGGSLRLSCAASGRIFGPYTMGWYRQAPGKERELVATISYSGSTTYYADSVKGRFTISRDNAKNTVYLQMNSLKPEDTAVYYCNAQYYVFITFDYWGQGTQVTVSS", "polyreactivity (PSR sort gate)": "high polyreactivity"}
{"sequence": "QVQLVESGGGLVQAGGSLRLSCAASGRIFGQYAMGWYRQAPGKERELVAAITYSTGSTSYADSVKGRFTISRDNAKNTVYLQMNSLKPEDTAVYYCATRKPSVRGVIPTRNSYYYWGQGTQVTVSS", "polyreactivity (PSR sort gate)": "high polyreactivity"}
{"sequence": "QVQLVESGGGLVQAGGSLRLSCAASGRIFGRNAMGWSRQAPGKERELVASITSGGSTNYADSVKGRFTISRYNAKNTVYLQMNSLKPEDTAVYYCNARWTGSYTSTGFRRRFDYWGQGTQVTVSS", "polyreactivity (PSR sort gate)": "high polyreactivity"}
{"sequence": "QVQLVESGGGLVQAGGSLRLSCAASGRIFGRNAMGWYRQAPGKEREFVAAITSSGGNTYYADSVKGRFTISRDNAKNTVYLQMNSLKPEDTAVYYCAARGARYCTSDYWGQGTQVTVSS", "polyreactivity (PSR sort gate)": "high polyreactivity"}
{"sequence": "QVQLVESGGGLVQAGGSLRLSCAASGRIFGRNAMGWYRQAPGKERELVAAISRRSVSTYYADSVKGRFTISRDIAKNTVYLQMNSLKPEETAVYYCAARKSLTTPYGYWGQGTQVTVSS", "polyreactivity (PSR sort gate)": "high polyreactivity"}
{"sequence": "QVQLVESGGGLVQAGGSLRLSCAASGRIFGRNAMGWYRQAPGKERELVAAISSSGGTYYADSVKGRFTISRDNAKNTVYLQMNSLKPEDTAVYYCNARVRTQQRWVDYWGQGTQVTVSS", "polyreactivity (PSR sort gate)": "high polyreactivity"}
{"sequence": "QVQLVESGGGLVQAGGSLRLSCAASGRIFGRNAMGWYRQAPGKERELVAAISSSGGTYYADSVKGRFTISRDNAKNTVYLQMNSLKPEDTAVYYCTARVRTQQRWVDYWGQGTQVTVSS", "polyreactivity (PSR sort gate)": "high polyreactivity"}
{"sequence": "QVQLVESGGGLVQAGGSLRLSCAASGRIFGRNVMGWYRQAPGKERELVAAITTGGGSTYYADSVKGRFTISRDNAKNTVYLQMNSLKPEDTAVYYCATDRRHEYSSRRYYYWGQGTQVTVSS", "polyreactivity (PSR sort gate)": "high polyreactivity"}
